Experiment: yeast display, Sf9 membrane polyspecificity reagent, FACS + sequencing; frameworks hold sequencing errors
Summary of the method: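 Polyreactivity labels are assigned by the sorting gate from which each nanobody was recovered. The gates were low and high (top ~1%), set on anti-HA fluorescence for expression and streptavidin fluorescence for reagent binding. Before sorting, galactose-induced (36–48 hours) yeast display cells were stained for 1 hour at 4 °C with 10% biotinylated, detergent-solubilized Sf9 membrane reagent.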
For “QVQLVESGGGLVQAGGSLRLSCAASGSIFQWYAMGWYRQAPGKERELVAAISWDGDSTYYADSVKGRFTISRDNAKNTVYLQMNSMNPEDTAVYYCAADYEWEYEYWGQGTQVTVSS”, the “polyreactivity (PSR sort gate)” value was “high polyreactivity”. For “QVQLVESGGGLVQAGGSLRLSCAASGSIFQYYPMGWYRQAPGKERELVAAINSGGRTNYADSVKGRFTISRDNAKNTVYLQMNSLKPEDTAVYYCAKRLSTRASFGEEDSWGQGTQVTVSS”, the “polyreactivity (PSR sort gate)” value was “low polyreactivity”. In the case of “QVQLVESGGGLVQAGGSLRLSCAASGSIFRAYAMGWYRQAPGKERELVAAISWGGGSTSYADSVKGRFTLSRDNAKNTVYLQMNSLNPEDTAVYYCNKVSLSKRRDYYWGQGTQVTVSS”, the “polyreactivity (PSR sort gate)” value is reported as “high polyreactivity”. In the case of “QVQLVESGGGLVQAGGSLRLSCAASGSIFRAYAMGWYRQAPGKERELVAAITWSGGRTFYADSVKGRFTISRDNAKNTVYLQMNSLKPEDTAVYYCAAFVYQRGRIYDYWGQGTQVTVSS”, the “polyreactivity (PSR sort gate)” value is reported as “high polyreactivity”. For “QVQLVESGGGLVQAGGSLRLSCAASGSIFRAYAMGWYRQAPGKERELVAGITKSGGSTYYADSVKGRFTISRDHAKNTVYLQMNSLKPEDTAVYYCAAYRSRTYGYWGQGTQVTVSS”, the “polyreactivity (PSR sort gate)” value was “high polyreactivity”. With “QVQLVESGGGLVQAGGSLRLSCAASGSIFRDYVMGWYRQAPGKERELVAAISGNDGSTYYADSVKGRFTISRDNAKNTVYLQLNSLKPEDTAVYYCNADEASTFPQFYSYLDFDYWGQGTQVTVSS” the “polyreactivity (PSR sort gate)” value was “low polyreactivity”. With “QVQLVESGGGLVQAGGSLRLSCAASGSIFRFYAMGWYIQAPGKERELVAGITWSGASTYYADSVKGRFTISRDNAKNTVYLQMNSLKPEDNAVYYCSAKSLIVRYDSWGQGTQVTVSS” the “polyreactivity (PSR sort gate)” value was “high polyreactivity”. In the case of “QVQLVESGGGLVQAGGSLRLSCAASGSIFRFYTMGWYRQAPGKERELVASITWTGGSTYYADSVKGRFTISRDNAKNTVYLQMNSLKPEDTAVYYCAARRYRRLVGRYDYWGQGTQVTVSS”, the “polyreactivity (PSR sort gate)” value is reported as “low polyreactivity”. With “QVQLVESGGGLVQAGGSLRLSCAASGSIFRFYVMGWYRQAPGKEREMVAAISIGGSTNYADSVKGRFTISLDNAKNTVFLQMNSLKPEDTAVYYCAADYWYGAGMPHGTEFDYWGQGTQVTVSS” the “polyreactivity (PSR sort gate)” value was “low polyreactivity”. For “QVQLVESGGGLVQAGGSLRLSCAASGSIFRGNAMGWYRQAPGKERELDATISNGGSTNYADAVKGRFTISRDNAKNTVYLQMNSLKPEDTAVYYCAKPLYKTWWGYAYDYWGQGTQVTVSS”, the “polyreactivity (PSR sort gate)” value was “high polyreactivity”. With “QVQLVESGGGLVQAGGSLRLSCAASGSIFRGNAMGWYRQAPGKERELVAGINRAGSTKYADSVKGRFTISRDNAKNTVYLLMNSLKPEETAVYYCAARGYSSEYDYWGKGTQVTVSS” the “polyreactivity (PSR sort gate)” value was “high polyreactivity”. For “QVQLVESGGGLVQAGGSLRLSCAASGSIFRGNAMGWYRQAPGKERELVAVITWSGGSTYYADSVKGRFTISRDNAKNTVYLQMNSLKPEDTAVYYCNAARKQRVYFAGDYWGQGTQVTVSS”, the “polyreactivity (PSR sort gate)” value was “high polyreactivity”. With “QVQLVESGGGLVQAGGSLRLSCAASGSIFRGNGMGWYRQAPGKERELVAAISRSGGRTYYADSVKGRFTISRDNAKNTVYLQMNSLKPEDTAVYYCNAARTYQYDYWGQGTQVTVSS” the “polyreactivity (PSR sort gate)” value was “high polyreactivity”. In the case of “QVQLVESGGGLVQAGGSLRLSCAASGSIFRGYAMGCYRQAPGKERELVAAITSGGSTNYADSVKGRFTISRDNAKNTVYLQMNSLKPEDTAVYYCAKDLALVAPLSDYWGQGTQVTVSS”, the “polyreactivity (PSR sort gate)” value is reported as “low polyreactivity”. In the case of “QVQLVESGGGLVQAGGSLRLSCAASGSIFRGYAMGWYRQAPGKERELVAAINTSGGRTYYADSVKGRFTISRDNAKNTVYLQMNSLKPEDTAVYYCATEYYQAKREDYWGQGTQVTVSS”, the “polyreactivity (PSR sort gate)” value is reported as “high polyreactivity”. In the case of “QVQLVESGGGLVQAGGSLRLSCAASGSIFRGYAMGWYRQAPGKERELVAAISIGGRTYYADSVKGRFTISRDNAKNTVYLQMNSLKPEDTAVYYCAVQKPKTGKGKKDTYGRDGYWGQGTQVTVSS”, the “polyreactivity (PSR sort gate)” value is reported as “high polyreactivity”. For “QVQLVESGGGLVQAGGSLRLSCAASGSIFRGYAMGWYRQAPGKGRELVAAISWSGASTYYADSVKGRFTISRDNAKNTVYLQMNSLKPEDTAVYYCAAVQWTGYPFDYWGQGTQVTVSS”, the “polyreactivity (PSR sort gate)” value was “high polyreactivity”. With “QVQLVESGGGLVQAGGSLRLSCAASGSIFRGYDMGWYRQPPGKERELVAAISRSGGITYYADSVKGRFTISRDNAKNTVYLNMNSLKPEVTAVYYCAASRAGGYYGKGYSWGQGTQVTVSS” the “polyreactivity (PSR sort gate)” value was “high polyreactivity”. For “QVQLVESGGGLVQAGGSLRLSCAASGSIFRGYGMGWYRQAPGKERELVAAITSGDSTNYADSVKARFTLSRDNAKTTVYLQMNSLKPEDTAVNYCAAASTGRPSVSYDYWGQGTQVTVSS”, the “polyreactivity (PSR sort gate)” value was “low polyreactivity”. In the case of “QVQLVESGGGLVQAGGSLRLSCAASGSIFRGYSMGWYRQAPGKERELVAAINTSGGRTYYADSVKGRFTISRDNAKNTVYLQMNSLKPEDTAVFYCATEYYQAKREDYWGQGTQVTVSS”, the “polyreactivity (PSR sort gate)” value is reported as “high polyreactivity”. In the case of “QVQLVESGGGLVQAGGSLRLSCAASGSIFRGYTLGWYRQAPGKERELVAAISTRGGSTYYADSVKGRFTISRDNANNTVYLQMNSLKPEDTAVYYCNARSRGRASGYDYWGQVTQVTVSS”, the “polyreactivity (PSR sort gate)” value is reported as “high polyreactivity”. With “QVQLVESGGGLVQAGGSLRLSCAASGSIFRINAMGWYRQAPGKERELVAAITRSGGSTFYADSVKGRFTISRDNAKNTVYLQMNSLKPEDTAVYYCAAVWYYSTVPARYEYWGQGTQVTVSS” the “polyreactivity (PSR sort gate)” value was “low polyreactivity”. For “QVQLVESGGGLVQAGGSLRLSCAASGSIFRIYAKGWYRQAPGKERELVAAISSTGSTSYADSVKGRFTISRDNAKNTVYLQMNSLKPEDTAVYYCAAGVYALRRDYWVQGTQVTVSS”, the “polyreactivity (PSR sort gate)” value was “low polyreactivity”. For “QVQLVESGGGLVQAGGSLRLSCAASGSIFRIYAMGWYRPAPGKERELVAAISRGGGSTYYADSVKGRFTISRDNAKNTVYLQMNSLKPEDTAVYYCAARSPYRYYYWGQGTQVTVSS”, the “polyreactivity (PSR sort gate)” value was “high polyreactivity”. With “QVQLVESGGGLVQAGGSLRLSCAASGSIFRIYAMGWYRQAPGKERELVAGISKSGGSTYYADSVKGRFTISRDNAKNTVYLQMNSLKPEDTAVYYCAAGYYYFWTYDYWGQGTQVTVSS” the “polyreactivity (PSR sort gate)” value was “low polyreactivity”. With “QVQLVESGGGLVQAGGSLRLSCAASGSIFRKNAMGWYRQAPGKERELVAAITGTGRTTYADSEKGRFTISRDNAKNTVYLQMNSLKPEDTAVYYCAADVNYYQHRLYYWGQGTQVSVSS” the “polyreactivity (PSR sort gate)” value was “low polyreactivity”. With “QVQLVESGGGLVQAGGSLRLSCAASGSIFRKYTMGWYRQAPGKERELVAAISGTAGRTYYADSVKGRFTISRDNAKNTVYLQMNSLKPEDTAVYYCAARRFGGYGYNYWGQGTQVTVSS” the “polyreactivity (PSR sort gate)” value was “high polyreactivity”. With “QVQLVESGGGLVQAGGSLRLSCAASGSIFRLYALGWYRQAPGKERELVAAISRRGGSTNYADSVKGRFTISRDNAKNTVYFQMNSLKPEDTAVYYCARDVDTHYPYAYDYWGQGTQVTVSS” the “polyreactivity (PSR sort gate)” value was “high polyreactivity”. In the case of “QVQLVESGGGLVQAGGSLRLSCAASGSIFRNYAMGWYRQAPGKERELVAAITSIGGGTYYADSVKGRFTISRDNAKNTVYLQMNSLKPEDTAVYYCAAVSGPFVQTSGNGEYDYWGQGTQVTVSS”, the “polyreactivity (PSR sort gate)” value is reported as “low polyreactivity”. For “QVQLVESGGGLVQAGGSLRLSCAASGSIFRPNTMGWYRQAPGKERELVAAINWSGDDTYYADSVKGRFTISRDNAKNTVYLQMNSLKPEDTAVYYCAVDLFDGVTKLNYDYWGQGTQVTVSS”, the “polyreactivity (PSR sort gate)” value was “low polyreactivity”. In the case of “QVQLVESGGGLVQAGGSLRLSCAASGSIFRPNVMGWYRQAPGKERELVAAITGSGGSTYYADSVKGRFTISRDNAKNTVYLQMNSLKPEDTAVYYCNARTVSRGRYTYDYWGQGTQVTVSS”, the “polyreactivity (PSR sort gate)” value is reported as “low polyreactivity”. For “QVQLVESGGGLVQAGGSLRLSCAASGSIFRPYAMGWYRQAPGKEREFVAAITYGGGNTYYADSVKGRFTISRDNAKNTFYLQMNILKPEDTAVYYCNKLSRGFSPKYDYWGQGTQVTVSS”, the “polyreactivity (PSR sort gate)” value was “high polyreactivity”. In the case of “QVQLVESGGGLVQAGGSLRLSCAASGSIFRPYAMGWYRQAPGKERELVAGITWGGSRTYYADSVKGRFTISRDNAKNTVYLQMNSLKPEDTAVYYCAAYPSTNGYIYYYWGQGSQVTVSS”, the “polyreactivity (PSR sort gate)” value is reported as “high polyreactivity”. For “QVQLVESGGGLVQAGGSLRLSCAASGSIFRPYAMGWYRQAPGKERELVATINQSGSSTYYADSVKGRFTISRDNAKNTVYLQKNSLKPEDTAVYYCAVVYTYHGYTYDYWGQGTQVTVSS”, the “polyreactivity (PSR sort gate)” value was “low polyreactivity”. For “QVQLVESGGGLVQAGGSLRLSCAASGSIFRQYAMGWYRQAPGKERELVAAINYSGGNTYYADSVKGRFTISRDNAKNTVYLQMNSLKPEDTAVYYCAADSVRHFWWAYYYWGQGTQVTVSS”, the “polyreactivity (PSR sort gate)” value was “low polyreactivity”. With “QVQLVESGGGLVQAGGSLRLSCAASGSIFRRNAMGWYRQAPGKDRELVAAITTRGSRTTYADSVKGRFTISRDNAKNTVYLQMNSMKPEDTAVYYCAARQHFSYSFHVAYDYWGQGTQVTVSS” the “polyreactivity (PSR sort gate)” value was “high polyreactivity”. In the case of “QVQLVESGGGLVQAGGSLRLSCAASGSIFRRYAMGGYRQAPGKERELVAAITSGDTTKYADSVKGRFTISRDNAKNTVYLQMNSLKPEDTAVYYCNKKGWPRFVHGFLRRDDYWGQGTQVTVSS”, the “polyreactivity (PSR sort gate)” value is reported as “low polyreactivity”. With “QVQLVESGGGLVQAGGSLRLSCAASGSIFRRYAMGWYRHAPGKEREFVAAITRSGGGTYYADSVKGRFTISRDNAKNTVSLQMNSLKPEDTAVYFCAKDVFVQRSRYPEGDYWGQGTQVTVSS” the “polyreactivity (PSR sort gate)” value was “high polyreactivity”. With “QVQLVESGGGLVQAGGSLRLSCAASGSIFRRYAMGWYRKAPGKERELVAGISRGGGITYYADSVKGRFTISRDNAKNTVYLQMNSLKPEDTAVYYCAARIGATYWVDWTHRAYDYWGQGTQVTVSS” the “polyreactivity (PSR sort gate)” value was “high polyreactivity”. In the case of “QVQLVESGGGLVQAGGSLRLSCAASGSIFRRYAMGWYRQAPGKERELVAAISFSGGSTYYADSVKGRFTISRDNAKNTVYLQMNSLKPEDTAVYYCAARSYAYSGDYWGQGTQVNVSS”, the “polyreactivity (PSR sort gate)” value is reported as “high polyreactivity”. For “QVQLVESGGGLVQAGGSLRLSCAASGSIFRRYAMGWYRQAPGKERELVAAISGSAGSTYYADSVKGRFTISRDNAKNTVYLQMNSLKPEDTAVYYCAADPDDGYDYWGQVTQVTVSS”, the “polyreactivity (PSR sort gate)” value was “low polyreactivity”. With “QVQLVESGGGLVQAGGSLRLSCAASGSIFRRYTMGWYRQAPGKERELVAAISRVGNTNYADSVKGRFTISRDNAKNTVYLQMNSLKPEDTAVYYCAARAIGYRYTPGLNYWGQGTQVTVSS” the “polyreactivity (PSR sort gate)” value was “high polyreactivity”. In the case of “QVQLVESGGGLVQAGGSLRLSCAASGSIFRRYVMGWYRQAPGKERELVASISSNGTSTYYADSVKGRFTISRDNSKNTVYLQMNSLKPEDTAVYYCNVDIFDPRTYDYWGQGTQVTVSS”, the “polyreactivity (PSR sort gate)” value is reported as “low polyreactivity”.

— the nanobody polyreactivity screen of Harvey et al. (2022)
